Literature values in paper PMC7654312.

Key:
[1] = molecular target: Lys210 (UniProt position 210, VVKVAKLGISE)
[2] = tested on: Lys210

Substance	pKa [1]	pKa [2]
Retro-aldolase RA95.0 (computationally designed) (synthetic construct (design on an indole-3-glycerol phosphate synthase TIM-barrel scaffold))	8.1	
Retro-aldolase RA95.5 (evolved variant of RA95.0) (synthetic construct (design on an indole-3-glycerol phosphate synthase TIM-barrel scaffold); T83K)		7.6
